Substitutions are numbered along the chain they refer to. Read-outs that look alike come from different tables or passages of the source.
Experiments:
[1] = molecular target: T1, FLAG-tagged cynomolgus Ang2 (cynomolgus, UniProt O15123 19-496 (human entry), limits assumed); experiment: competition ELISA: FLAG-cAng2 binding to coated cTie2-Fc
T1 construct: N-terminally FLAG-tagged, conditioned medium of HEK293T cells; also called cAng2; FLAG-cAng2
T1 chain: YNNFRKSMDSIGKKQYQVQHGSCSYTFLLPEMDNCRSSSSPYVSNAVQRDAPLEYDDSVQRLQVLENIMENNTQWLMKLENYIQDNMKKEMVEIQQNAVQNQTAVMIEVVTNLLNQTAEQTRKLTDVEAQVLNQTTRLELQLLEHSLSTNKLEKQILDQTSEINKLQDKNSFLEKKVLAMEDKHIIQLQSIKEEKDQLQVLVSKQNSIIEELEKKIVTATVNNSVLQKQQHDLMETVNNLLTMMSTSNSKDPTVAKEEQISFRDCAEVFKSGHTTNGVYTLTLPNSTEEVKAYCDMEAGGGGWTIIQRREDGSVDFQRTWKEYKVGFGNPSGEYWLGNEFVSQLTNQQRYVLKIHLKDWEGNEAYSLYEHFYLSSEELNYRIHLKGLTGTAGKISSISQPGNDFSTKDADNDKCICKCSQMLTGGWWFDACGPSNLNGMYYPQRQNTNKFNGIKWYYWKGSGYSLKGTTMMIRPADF
Protocol: (§1) In brief, 2 μg/mL of recombinant mouse Tie2-Fc or cyno Tie2-Fc is coated overnight at 4° C. in a 96-well MaxiSorp plate (Nunc, Wiesbaden, Germany). Coated wells are blocked with a 1% casein solution.

FLAG-tagged mouse Ang2 [2] = molecular target: T2, FLAG-tagged mouse Ang2 (mouse, UniProt O35608 19-496); experiment: competition ELISA: FLAG-mAng2 binding to coated mTie2-Fc
T2 construct: N-terminally FLAG-tagged, conditioned medium of HEK293T cells; also called mAng2; FLAG-mAng2
T2 sequence: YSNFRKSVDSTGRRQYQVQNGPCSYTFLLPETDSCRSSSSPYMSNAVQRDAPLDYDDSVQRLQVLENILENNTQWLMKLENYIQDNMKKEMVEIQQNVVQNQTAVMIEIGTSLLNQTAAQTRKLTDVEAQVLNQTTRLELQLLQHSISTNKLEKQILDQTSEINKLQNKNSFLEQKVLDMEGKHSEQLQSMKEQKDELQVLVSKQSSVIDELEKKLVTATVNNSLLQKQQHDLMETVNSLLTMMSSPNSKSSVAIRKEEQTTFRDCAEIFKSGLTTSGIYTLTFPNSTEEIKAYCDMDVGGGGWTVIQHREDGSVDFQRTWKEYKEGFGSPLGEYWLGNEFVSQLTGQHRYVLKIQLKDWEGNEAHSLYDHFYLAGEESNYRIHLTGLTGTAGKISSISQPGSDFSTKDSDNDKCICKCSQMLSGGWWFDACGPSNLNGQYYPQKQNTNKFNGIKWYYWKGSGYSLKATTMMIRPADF
Protocol: as §1

recombinant rat Ang2-FLD = molecular target: T3, recombinant rat Ang2-FLD (rat, UniProt O35462 275-496, limits assumed); experiment: SPR (Biacore T100), VHH immobilized, Ang2-FLD injected
T3 construct: domain: FLD
T3 sequence (looked up): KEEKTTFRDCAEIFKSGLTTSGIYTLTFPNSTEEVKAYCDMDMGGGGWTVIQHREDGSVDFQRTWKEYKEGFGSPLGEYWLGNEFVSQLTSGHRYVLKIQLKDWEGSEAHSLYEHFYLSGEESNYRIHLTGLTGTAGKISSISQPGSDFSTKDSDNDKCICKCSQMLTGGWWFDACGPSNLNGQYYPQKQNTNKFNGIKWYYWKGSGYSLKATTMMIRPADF

[3] = molecular target: T4, recombinant cynomolgus Ang2-FLD (cynomolgus, UniProt A0A2K5VNX6 275-496); experiment: as above
T4 construct: domain: FLD; also called cyno Ang2-FLD
T4 sequence: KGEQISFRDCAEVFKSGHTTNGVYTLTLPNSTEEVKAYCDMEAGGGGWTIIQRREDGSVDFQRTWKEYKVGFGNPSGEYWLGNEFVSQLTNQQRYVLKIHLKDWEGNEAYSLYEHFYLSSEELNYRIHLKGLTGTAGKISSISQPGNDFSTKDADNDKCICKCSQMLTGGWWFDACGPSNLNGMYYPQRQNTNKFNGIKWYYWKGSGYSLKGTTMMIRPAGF

[4] = molecular target: T5, recombinant mouse Ang2-FLD (mouse, UniProt O35608 275-496, limits assumed); experiment: as above
T5 construct: domain: FLD
T5 sequence (looked up): T3 sequence (looked up) with K4Q, V35I, M43V, S91G, G92Q, S107N, E114D, S119A, T168S

[5] = molecular target: T6, recombinant human Ang2-FLD (human, UniProt O15123 275-496, limits assumed); experiment: as above
T6 construct: domain: FLD
T6 sequence (looked up): T4 sequence with G2E, V23I, L28F, V35I, A154G, G212A, G221D

FLAG-tagged mouse Ang2 [6] = molecular target: T2, FLAG-tagged mouse Ang2; experiment: competition ELISA: FLAG-mAng2 binding to coated mTie2-Fc; remark: listed apart in the source
Protocol: as §1

FLAG-tagged mouse Ang2 [7] = molecular target: T2, FLAG-tagged mouse Ang2; experiment: as above; remark: listed apart in the source
Protocol: as §1

[8] = molecular target: T1, FLAG-tagged cynomolgus Ang2; experiment: competition ELISA: FLAG-cAng2 binding to coated cTie2-Fc
Protocol: as §1

[9] = molecular target: T1, FLAG-tagged cynomolgus Ang2; experiment: as above
Protocol: as §1

B1: VHH 00932 (VHH, not shown: small tags and cut ends)
VHH: EVQLVESGGGLVQPGGSLRLSCAVSGITLDDYAIGWFRQAPGKEREGVSSIRDNGGSTYYADSVKGRFTISSDNSKNTVYLQMNSLRPEDTAVYYCAAVPAGRLRYGEQWYPIYEYDAWGQGTLVTVSS
notes: Cycle 3 variant of 28D10 on the 00908 backbone
IC50 [1]: 0.054 nM
IC50 (FLAG-tagged mouse Ang2 [2]): 0.038 nM

B2: VHH 00956 (VHH, not shown: small tags and cut ends)
VHH: B1 VHH with V24A, I27F, S50A, D53S, N54S, Y106F, I113L
IC50 [1]: 0.83 nM
Kd (recombinant rat Ang2-FLD): 13 nM
koff (recombinant rat Ang2-FLD): 0.0052 s⁻¹
kon (recombinant rat Ang2-FLD): 420000 M⁻¹ s⁻¹
Kd [3]: 0.72 nM
koff [3]: 0.0013 s⁻¹
kon [3]: 1.7e+06 M⁻¹ s⁻¹
Kd [4]: 4 nM
koff [4]: 0.0039 s⁻¹
kon [4]: 980000 M⁻¹ s⁻¹
Kd [5]: 1.2 nM
koff [5]: 0.0015 s⁻¹
kon [5]: 1.3e+06 M⁻¹ s⁻¹
IC50 (FLAG-tagged mouse Ang2 [2]): 2.2 nM

B3: VHH 00938 (VHH, not shown: small tags and cut ends)
VHH: B1 VHH with S50A, D53S, N54S
notes: as for B1
IC50 [1]: 0.091 nM
Kd (recombinant rat Ang2-FLD): 0.14 nM
koff (recombinant rat Ang2-FLD): 7.2e-05 s⁻¹
kon (recombinant rat Ang2-FLD): 510000 M⁻¹ s⁻¹
Kd [3]: 0.0087 nM
koff [3]: 2.2e-05 s⁻¹
kon [3]: 2.6e+06 M⁻¹ s⁻¹
Kd [4]: 0.05 nM
koff [4]: 5.6e-05 s⁻¹
kon [4]: 1.1e+06 M⁻¹ s⁻¹
Kd [5]: 0.017 nM
koff [5]: 2.8e-05 s⁻¹
kon [5]: 1.6e+06 M⁻¹ s⁻¹
IC50 (FLAG-tagged mouse Ang2 [2]): 0.055 nM

B4: VHH 00935 (VHH, not shown: small tags and cut ends)
VHH: B1 VHH with V24A, S50A, D53S, N54S
notes: as for B1
IC50 [1]: 0.069 nM
IC50 (FLAG-tagged mouse Ang2 [2]): 0.078 nM

B5: VHH 00933 (VHH, not shown: small tags and cut ends)
VHH: B1 VHH with V24A, S50A
notes: as for B1
IC50 [1]: 0.071 nM
IC50 (FLAG-tagged mouse Ang2 [2]): 0.062 nM

B6: VHH 37F02 (VHH, not shown: small tags and cut ends)
VHH: EVQLVESGGGLVQPGGSLRLSCAASGFALDYYAIGWFRQAPGKEREGVSCISSSDGITYYVDSVKGRFTISRDNAKNTVYLQMNSLKPEDTAVYYCATDSGGYIDYDCMGLGYDYWGQGTQVTVSS
notes: Parental llama VHH; also called 037F02
IC50 (FLAG-tagged mouse Ang2 [6]): 0.11 nM
IC50 (FLAG-tagged mouse Ang2 [7]): 0.11 nM
IC50 [8]: 0.15 nM
IC50 [9]: 0.15 nM

B7: VHH 00930 (VHH, not shown: small tags and cut ends)
VHH: B6 VHH with D55G, V61A, A75S, K87R, D99E, M109R, Q121L
IC50 (FLAG-tagged mouse Ang2 [7]): 0.17 nM
IC50 [9]: 0.31 nM

B8: VHH 00931 (VHH, not shown: small tags and cut ends)
VHH: B6 VHH with D55G, V61A, A75S, K87R, D99E, M109S, Q121L
IC50 (FLAG-tagged mouse Ang2 [7]): 0.15 nM
IC50 [9]: 0.29 nM
